Bridges are numbered along the chain shown (N, C = ends). Where no end group is shown, it is not given here.
Columns and labels:
Type 1 IGF-I receptor = target: T1, Type 1 IGF-I receptor (UniProt P08069 31-1367, limits assumed); test: competitive receptor-binding assay, against wild-type human insulin as reference
T1 construct: also called IGF-1R; Type 1 insulin-like growth factor receptor

[1] = target: T2, A isoform of the insulin receptor (UniProt P06213-2 28-1370, limits assumed); test: competitive displacement of radiolabelled tracer, receptor on microtiter plates coated with AU5 IgG
T2 construct: isoform A lacks exon 11; also called IR-A
Procedure: The assay employed the A isoform of the insulin receptor. […] The protocol for assay of receptor-binding activities was as follows. Microtiter strip plates (Nunc Maxisorb) were incubated overnight at 4° C. with AU5 IgG (100 μl/well of 40 mg/ml in phosphate-buffered saline). Binding data were analyzed by a two-site sequential model.

Binder	fold lower affinity than wild-type human insulin (Type 1 IGF-I receptor) [fold]	Kd [1] [nM]
SCI-57DP (ligand, disulfide 19-56, 42-47, 7-43, Made in Pichia pastoris; the cleaved product has 57 residues with native disulfide bridges; also called SCI-2; Thermalin-biphasic) FVNQHLCGSHLVEALYLVCGERGFFYTDPTEEGPRRGIVEQCCHSICSLEQLENYCN	5	0.06
SCI-57PE (ligand, disulfide 19-56, 42-47, 7-43, Made in Pichia pastoris; the cleaved product has 57 residues with native disulfide bridges; also called SCI-1; Thermalin-biphasic) FVNQHLCGSHLVEALYLVCGERGFFYTPETEEGPRRGIVEQCCHSICSLEQLENYCN	–	0.08

From patent US20180265560A1 (CASE WESTERN RESERVE UNIVERSITY, published 2018)
